T1: soluble extracellular domain of human IL-5 receptor alpha subunit (sIL-5Rα) (human, UniProt Q01344 21-333)
T1 chain: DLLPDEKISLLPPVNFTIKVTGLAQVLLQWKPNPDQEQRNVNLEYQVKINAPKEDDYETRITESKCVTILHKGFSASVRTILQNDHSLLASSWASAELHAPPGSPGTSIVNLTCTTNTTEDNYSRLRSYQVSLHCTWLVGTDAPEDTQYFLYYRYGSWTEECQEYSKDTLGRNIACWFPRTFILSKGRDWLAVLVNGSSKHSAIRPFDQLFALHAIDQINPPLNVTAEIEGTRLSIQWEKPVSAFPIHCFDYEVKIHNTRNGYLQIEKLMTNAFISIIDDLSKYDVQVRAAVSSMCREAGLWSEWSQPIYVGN


Tests used:
insulin = biological target: T2, insulin (Homo sapiens (assumed), UniProt P01308); assay: ELISA; plates coated at 25°C for 1 h with sIL-5Rα (50 ng/well) or off-target antigens (insulin 125 ng/well, hemocyanin 125 ng/well); Abs 8–200 nM in PBST pH 7.4 with 2% skim milk, 25°C, 1 h; detected with HRP anti-human Fc or anti-mouse Fc; conditions: both partners purified
T2 construct: insulin B chain; insulin A chain; Off-target antigen of the nonspecificity ELISA (125 ng/well)

[1] = biological target: T1, soluble extracellular domain of human …; assay: ELISA; competition with plate-immobilized IL-5-mFc
[2] = biological target: T3, soluble extracellular domain of human IL-5 receptor alpha subunit (sIL-5Rα) (human, UniProt Q01344); assay: BLI; Octet QKe, 30°C, 1× kinetics buffer in PBS pH 7.4; Ab immobilised on anti-human IgG Fc capture (AHC) biosensors, sIL-5Rα as analyte; association 300 s, dissociation 600 s; 1:1 binding model; conditions: both partners purified
T3 construct: human IL-5 receptor alpha subunit (IL-5Rα, CD125), extracellular domain, residues 21–333; subcloned from a cDNA of residues 1–420; Expressed from the pSecTag2A vector; migrates at ~50 kDa (glycosylated); A biotinylated form (BirA) was used only for library screening; also called sIL-5α; CD125; source: HEK293F, transiently transfected, purified (Ni-NTA); not shown: Avi, C-terminal, kept; His6, …

[3] = biological target: T3, soluble extracellular domain of human …; assay: cell-based or functional assay
[4] = biological target: T3, soluble extracellular domain of human …; assay: ELISA; competitive: plates coated with IL-5-mFc (100 ng/well); sIL-5Rα (50 nM) added with anti–IL-5Rα Abs (0–1 µM), 25°C, 1 h; bound sIL-5Rα detected with HRP anti-His; conditions: both partners purified

T2 sequence (P01308 whole entry, looked up): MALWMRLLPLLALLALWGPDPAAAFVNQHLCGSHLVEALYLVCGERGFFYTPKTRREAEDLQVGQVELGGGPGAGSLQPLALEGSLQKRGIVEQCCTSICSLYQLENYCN

| binding result (insulin) | IC50 [1] [nM] | Kd [2] [nM] | koff [2] [s⁻¹] | kon [2] [M⁻¹ s⁻¹] | IC50 of inhibition of rhIL-5 (80 pM)-stimulated proliferation of TF-1/IL-5Rα cells, Abs 0 to 32 nM, 40 h (blocks IL-5 with IL-5Rα) [3] [nM] | NK cell–mediated ADCC against peripheral eosinophils from healthy controls (autologous NK cells 1:5, Ab 1 μM, rhIL-5 100 pM, 20 h), fold against the benralizumab analogue [3] [fold] | IC50 [4] [nM] | Binder |
| --- | --- | --- | --- | --- | --- | --- | --- | --- |
| no binding (tested: 100 nM) | 28.8 | 24.1 ± 0.47 | 0.000566 | 23500 |  |  |  | 5R68 (antibody, V domains shown, Human IgG1, kappa; selected as scFab by yeast display from the hu2B7 VH-CDR2 library; source: HEK293F, purified (Protein A)) VH: QVQLVQSGAEVKKPGSSVKVSCKASGYTFTSYWINWVRQAPGQGLEWIGHIYPTATIAVYNDKFKDKATLTVDKSTNTAYMELSSLRSEDTAVYYCTRDYYGRSYYYAMDYWGQGTTLTVSS VL: DIQMTQSPSTLSASVGDRVTITCKASQNVGTAVAWYQQKPGKAPKLLIYWASTRHTGVPDRFSGSGSGTDFTLTISSLQPDDFATYYCQQFGRYPYTFGSGTKVEVK |
|  | 57.4 | 47.8 ± 1.06 | 0.00106 | 22200 |  |  |  | hu2B7 humanized anti–IL-5Rα antibody (antibody, V domains shown, VH of hu2B7: CDRs of m2B7 grafted on the FRs of daclizumab, mouse ThrH93 (Kabat) kept; VL of hu2B7: CDRs of m2B7 grafted on the FRs of daclizumab, mouse AspL60 and AspL70 kept; Full-length human IgG1, kappa; source: HEK293F, transiently cotransfected, purified (Protein A)) VH: QVQLVQSGAEVKKPGSSVKVSCKASGYTFTSYWINWVRQAPGQGLEWIGHIYPSESYTNYNQKFKDKATLTVDKSTNTAYMELSSLRSEDTAVYYCTRDYYGRSYYYAMDYWGQGTTLTVSS VL: DIQMTQSPSTLSASVGDRVTITCKASQNVGTAVAWYQQKPGKAPKLLIYWASTRHTGVPDRFSGSGSGTDFTLTISSLQPDDFATYYCQQFGRYPYTFGSGTKVEVK |
|  |  | 6.13 ± 0.32 | 0.000171 | 28000 |  |  |  | 5R65.39 (antibody, V domains shown, as the VH of m6 (5R65) with mutations in VH-CDR3 (Kabat residues 95–100d were randomised); no mutations in VL-CDR3; Human IgG1, kappa; selected as scFab by yeast display from the 5R65 CDR3 library under kinetic screening; source: HEK293F, purified (Protein A)) VH: QVQLVQSGAEVKKPGSSVKVSCKASGYTFTSYWINWVRQAPGQGLEWIGHIYPNKNENYYNHKFKDKATLTVDKSTNTAYMELSSLRSEDTAVYYCTREFYGRSRYSAMDYWGQGTTLTVSS VL: DIQMTQSPSTLSASVGDRVTITCKASQNVGTAVAWYQQKPGKAPKLLIYWASTRHTGVPDRFSGSGSGTDFTLTISSLQPDDFATYYCQQFGRYPYTFGSGTKVEVK |
| no binding (tested: 100 nM) |  | 14.5 ± 0.29 | 0.000329 | 22700 | ~11.8 | ~1.5 | ~9.5 | 5R65 (antibody, V domains shown, Human IgG1, kappa; selected as scFab by yeast display from the hu2B7 VH-CDR2 library; also called 5R65 Ab; source: HEK293F, purified (Protein A)) VH: QVQLVQSGAEVKKPGSSVKVSCKASGYTFTSYWINWVRQAPGQGLEWIGHIYPNKNENYYNHKFKDKATLTVDKSTNTAYMELSSLRSEDTAVYYCTRDYYGRSYYYAMDYWGQGTTLTVSS VL: DIQMTQSPSTLSASVGDRVTITCKASQNVGTAVAWYQQKPGKAPKLLIYWASTRHTGVPDRFSGSGSGTDFTLTISSLQPDDFATYYCQQFGRYPYTFGSGTKVEVK |
|  |  | 5.95 ± 0.27 | 0.000133 | 22400 |  |  |  | 5R65.18 (antibody, V domains shown, as the VH of m6 (5R65) with mutations in VH-CDR3 (Kabat residues 95–100d were randomised); no mutations in VL-CDR3; Human IgG1, kappa; selected as scFab by yeast display from the 5R65 CDR3 library under kinetic screening; source: HEK293F, purified (Protein A)) VH: QVQLVQSGAEVKKPGSSVKVSCKASGYTFTSYWINWVRQAPGQGLEWIGHIYPNKNENYYNHKFKDKATLTVDKSTNTAYMELSSLRSEDTAVYYCTREYYGRTYYSAMDYWGQGTTLTVSS VL: DIQMTQSPSTLSASVGDRVTITCKASQNVGTAVAWYQQKPGKAPKLLIYWASTRHTGVPDRFSGSGSGTDFTLTISSLQPDDFATYYCQQFGRYPYTFGSGTKVEVK |
|  |  | 8.25 ± 0.4 | 0.000201 | 24400 |  |  |  | 5R65.10 (antibody, V domains shown, as the VH of m6 (5R65) with mutations in VH-CDR3 (Kabat residues 95–100d were randomised); no mutations in VL-CDR3; Human IgG1, kappa; selected as scFab by yeast display from the 5R65 CDR3 library under kinetic screening; source: HEK293F, purified (Protein A)) VH: QVQLVQSGAEVKKPGSSVKVSCKASGYTFTSYWINWVRQAPGQGLEWIGHIYPNKNENYYNHKFKDKATLTVDKSTNTAYMELSSLRSEDTAVYYCTREYYGRSYYAAMDYWGQGTTLTVSS VL: DIQMTQSPSTLSASVGDRVTITCKASQNVGTAVAWYQQKPGKAPKLLIYWASTRHTGVPDRFSGSGSGTDFTLTISSLQPDDFATYYCQQFGRYPYTFGSGTKVEVK |
|  |  | 8.64 ± 0.35 | 0.000199 | 23000 |  |  |  | 5R65.14 (antibody, V domains shown, as the VH of m6 (5R65) with mutations in VH-CDR3 (Kabat residues 95–100d were randomised); no mutations in VL-CDR3; Human IgG1, kappa; selected as scFab by yeast display from the 5R65 CDR3 library under kinetic screening; source: HEK293F, purified (Protein A)) VH: QVQLVQSGAEVKKPGSSVKVSCKASGYTFTSYWINWVRQAPGQGLEWIGHIYPNKNENYYNHKFKDKATLTVDKSTNTAYMELSSLRSEDTAVYYCTREHYGRPYYNAMDYWGQGTTLTVSS VL: DIQMTQSPSTLSASVGDRVTITCKASQNVGTAVAWYQQKPGKAPKLLIYWASTRHTGVPDRFSGSGSGTDFTLTISSLQPDDFATYYCQQFGRYPYTFGSGTKVEVK |
| no binding (tested: 100 nM) | 24.2 | 16.2 ± 0.59 | 0.000365 | 22500 |  |  |  | 5R80 (antibody, V domains shown, Human IgG1, kappa; selected as scFab by yeast display from the hu2B7 VH-CDR2 library; source: HEK293F, purified (Protein A)) VH: QVQLVQSGAEVKKPGSSVKVSCKASGYTFTSYWINWVRQAPGQGLEWIGHIYPQKTLTIYNHKFKDKATLTVDKSTNTAYMELSSLRSEDTAVYYCTRDYYGRSYYYAMDYWGQGTTLTVSS VL: DIQMTQSPSTLSASVGDRVTITCKASQNVGTAVAWYQQKPGKAPKLLIYWASTRHTGVPDRFSGSGSGTDFTLTISSLQPDDFATYYCQQFGRYPYTFGSGTKVEVK |
| no binding (tested: 100 nM) | 14.1 | 11.8 ± 0.51 | 0.0003 | 25400 |  |  |  | 5R86 (antibody, V domains shown, Human IgG1, kappa; selected as scFab by yeast display from the hu2B7 VH-CDR2 library; source: HEK293F, purified (Protein A)) VH: QVQLVQSGAEVKKPGSSVKVSCKASGYTFTSYWINWVRQAPGQGLEWIGHIYPTSSVKFYNNKFKDKATLTVDKSTNTAYMELSSLRSEDTAVYYCTRDYYGRSYYYAMDYWGQGTTLTVSS VL: DIQMTQSPSTLSASVGDRVTITCKASQNVGTAVAWYQQKPGKAPKLLIYWASTRHTGVPDRFSGSGSGTDFTLTISSLQPDDFATYYCQQFGRYPYTFGSGTKVEVK |
|  |  | 7.26 ± 0.36 | 0.000181 | 24900 |  |  |  | 5R65.45 (antibody, V domains shown, as the VH of m6 (5R65) with mutations in VH-CDR3 (Kabat residues 95–100d were randomised); no mutations in VL-CDR3; Human IgG1, kappa; selected as scFab by yeast display from the 5R65 CDR3 library under kinetic screening; source: HEK293F, purified (Protein A)) VH: QVQLVQSGAEVKKPGSSVKVSCKASGYTFTSYWINWVRQAPGQGLEWIGHIYPNKNENYYNHKFKDKATLTVDKSTNTAYMELSSLRSEDTAVYYCTREYYGRSYYNAMDYWGQGTTLTVSS VL: DIQMTQSPSTLSASVGDRVTITCKASQNVGTAVAWYQQKPGKAPKLLIYWASTRHTGVPDRFSGSGSGTDFTLTISSLQPDDFATYYCQQFGRYPYTFGSGTKVEVK |
|  |  | 4.64 ± 0.23 | 0.000147 | 31700 | ~0.57 | ~3 |  | 5R65.7 (antibody, V domains shown, as the VH of m6 (5R65) with mutations in VH-CDR3 (Kabat residues 95–100d were randomised); no mutations in VL-CDR3; Human IgG1, kappa; selected as scFab by yeast display from the 5R65 CDR3 library under kinetic screening; also called 5R65.7 Ab; source: HEK293F, purified (Protein A)) VH: QVQLVQSGAEVKKPGSSVKVSCKASGYTFTSYWINWVRQAPGQGLEWIGHIYPNKNENYYNHKFKDKATLTVDKSTNTAYMELSSLRSEDTAVYYCTREFYGRQYYQAMDYWGQGTTLTVSS VL: DIQMTQSPSTLSASVGDRVTITCKASQNVGTAVAWYQQKPGKAPKLLIYWASTRHTGVPDRFSGSGSGTDFTLTISSLQPDDFATYYCQQFGRYPYTFGSGTKVEVK |
|  |  | 26.8 ± 0.52 | 0.0011 | 41100 | ~1.99 |  | ~9.8 | benralizumab analogue (antibody, V domains shown, VH of benralizumab, made by DNA synthesis; VL of benralizumab, made by DNA synthesis; Human IgG1, kappa; VH and VL identical to commercial benralizumab but with core fucose on the Fc N-glycan; also called benralizumab analogue (fucosylated human IgG1); source: HEK293F, transiently transfected, purified (Protein A)) VH: EVQLVQSGAEVKKPGASVKVSCKASGYTFTSYVIHWVRQRPGQGLAWMGYINPYNDGTKYNERFKGKVTITSDRSTSTVYMELSSLRSEDTAVYLCGREGIRYYGLLGDYWGQGTLVTVSS VL: DIQMTQSPSSLSASVGDRVTITCGTSEDIINYLNWYQQKPGKAPKLLIYHTSRLQSGVPSRFSGSGSGTDFTLTISSLQPEDFATYYCQQGYTLPYTFGQGTKVEIK |
|  |  | 40.2 ± 0.84 | 0.000834 | 20700 |  |  |  | m2B7 murine anti–IL-5Rα antibody (antibody, V domains shown, VH of murine m2B7; FRs of mouse germline IGHV1-61*01; VL of murine m2B7; FRs of mouse germline IGKV6-23*01; source: hybridoma supernatant, expanded and purified) VH: QVQLQQPGAELVRPGASVKLSCKASGYTFTSYWINWVKQRPGQGLEWIGHIYPSESYTNYNQKFKDKATLTVDKSSSTAYMQLSSPTSEDSAVYYCTRDYYGRSYYYAMDYWGQGTSVTVSS VL: DIVMTQSHKFMSTSVGDRVSITCKASQNVGTAVAWYQQKPGQSPKLLIYWASTRHTGVPDRFTGSGSGTDFTFTISNVQSEDLADYFCQQFGRYPYTFGGGTKLEIK |

From publication PMC7820887 (Frontiers in Immunology, 2020)
